Where “and” joins values, the source holds several entries; their conditions need not be identical. Identical values can stand only once. Bounds are passed on as bounds.

The target of assay [1] is T1, hROR2-Fc (human ROR2 Fc fusion protein) (human, UniProt Q01974 34-403, limits assumed).
T1 construct: Given both as hROR2-Fc and as Fc-hROR2, so the order of the two parts is not certain; also called Fc-hROR2; not shown: human Fc part (captured by a mouse anti-human IgG CH2 / Fcγ mAb)
Kind of assay: SPR; reference the existing anti-ROR2 antibody (XBR2-401).

In assay [2] the target is T1, hROR2-Fc (human ROR2 Fc fusion protein). Kind of assay: SPR, Biacore X100; hROR2-Fc captured, Fab injected; reference Fab 401.
Assay [3] shares this target. Kind of assay: SPR, Biacore X100; hROR2-Fc captured by anti-human Fc mAb on a CM5 chip, Fab injected.
The target in assay [4] is T2, human ROR1 on cells (MDA-MB-231, ROR2-, ROR1+; also 786-O, ROR2+, ROR1+) (human, UniProt Q01973 30-937).
T2 construct: whole, on cells
As to the kind of experiment: flow cytometry on MDA-MB-231 cells (ROR2-, ROR1+); Fab followed by PE-conjugated goat anti-human F(ab')2 pAbs.

The target in assay [5] is T1, hROR2-Fc (human ROR2 Fc fusion protein). As to the kind of experiment: SPR (Biacore X100), Fc-hROR2 captured on CM5 chip via mouse anti-human Fcγ mAb, Fab as analyte, 1:1 binding model.
The target in assay [6] is T2, human ROR1 on cells (MDA-MB-231, ROR2-, …). Kind of assay: Retrogenix cell microarray post-screen, ROR1 expressed on HEK 293 cells.
In assay [7] the target is human CD3 on Jurkat-T Lucia cells (CD3+) (human, UniProt P07766 23-207; P04234 22-171; P09693 23-182). Kind of assay: flow cytometry on Jurkat-T Lucia cells (CD3+); scFv-Fc followed by Alexa Fluor 647-conjugated donkey anti-human F(ab')2 pAbs.
Assay [8] has as its target human ROR2 on cells (endogenous on T47D, 786-O and U266 cell lines); expressed on HEK 293 cells of the … (human, UniProt Q01974 34-943). As to the kind of experiment: cell-based or functional assay.
Assay [9] deals with T2, human ROR1 on cells (MDA-MB-231, ROR2-, …). Kind of assay: flow cytometry on MDA-MB-231 cells (ROR2-, ROR1+); biAb followed by Alexa Fluor 647-conjugated donkey anti-human F(ab')2 pAbs.

B1: XBR2-401-X3.12 Fab (affinity matured chimeric rabbit/human Fab) (Fab, V domains shown)
VH: QSVKESEGGLFKPTDTLTLTCTVSGFSLSSYGVTWVRQAPGSGLEWIGYINTAGNTYYASWAKSRSTITRNTNENTVTLKMTSLTAADTATYFCARDDRWSLNIWGPGTLVTVSS
VL: DPMLTQTPSSTSTAVGDTVTIKCQASQSISSDLSWYQQKPGQRPKLLIYQASTLASGVPSRFKGSGYGTEYTLTISGVQREDAAIYYCLGGYADASYRTAFGGGTKLEIK
notes: Chimeric rabbit/human Fab
B1: the “fold increase in binding affinity” value in [1] came to 10 fold. Besides, in assay [2], the “fold improvement of affinity from 401” value was no less than 5 fold. In assay [3], this molecule yielded a dissociation constant Kd of 700 pM. In addition, the binding result in assay [4] is reported as “no binding”. In assay [5], this molecule displayed a dissociation constant Kd of 720 pM, a koff of 3.3e-05 s⁻¹ and an on-rate constant (kon) of 45000 M⁻¹ s⁻¹.

B2: hX3.12.6 scFv-Fc (IgG1-like format, two identical scFv fused to human IgG1 Fc) (Fc fusion)
chain: DPMLTQSPSSLSASVGDRVTITCQASQSISSDLSWYQQKPGKAPKLLIYQASTLASGVPSRFKGSGYGTEYTLTISSLQPEDFATYYCLGGYADASYRTAFGGGTKLEIKGGGGSGGGGSGGGGSEVQLVESGGGLVQPGGSLRLSCAASGFTFSSYGVTWVRQAPGKGLEWVSYINTAGNTYYASWAKSRFTISRDNAKNSLYLQMNSLRAEDTAVYYCARDDRWSLNIWGQGTLVTVSS
notes: The text says only: (Gly4Ser)3 linker between VL and VH, fused to the human IgG1 Fc fragment; also called mAb hX3.12.6 in scFv-Fc format; Humanized scFv-Fc xh3.12.6; not shown: human IgG1 Fc fragment
For the molecule B2, the binding result in assay [6] was “no binding (tested: 20 µg/mL)”; in assay [7], “no binding”.

B3: 401×v9 ROR2×CD3 bispecific antibody (heterodimeric aglycosylated scFv-Fc) (bispecific antibody)
chain 1: DPMLTQTPSSTSTAVGDTVTIKCQASQSISSDLSWYQQKPGQRPKLLIYQASTLASGVPSRFKGSGYGTEYTLTISGVQREDAAIYYCLGGYADASYRTAFGGGTKLEIKGGGGSGGGGSGGGGSQSVKESEGGLFKPTDTLTLTCTVSGFSLSSYGVTWVRQAPGSGLEWIGYINTAGNTYYASWAKSRSTITRNTNENTVTLKMTSLTAADTATYFCARDWTSLNIWGPGTLVTVSSEPKSSDKTHTCPPCPAPELLGGPSVFLFPPKPKDTLMISRTPEVTCVVVDVSHEDPEVKFNWYVDGVEVHNAKTKPREEQYASTYRVVSVLTVLHQDWLNGKEYKCKVSNKALPAPIEKTISKAKGQPREPQVYTLPPCRDELTKNQVSLWCLVKGFYPSDIAVEWESNGQPENNYKTTPPVLDSDGSFFLYSKLTVDKSRWQQGNVFSCSVMHEALHNHYTQKSLSLSPGA
chain 2: EVQLVESGGGLVQPGGSLRLSCAASGYSFTGYTMNWVRQAPGKGLEWVALINPYKGVSTYNQKFKDRFTISVDKSKNTAYLQMNSLRAEDTAVYYCARSGYYGDSDWYFDVWGQGTLVTVSSGGGGSGGGGSGGGGSDIQMTQSPSSLSASVGDRVTITCRASQDIRNYLNWYQQKPGKAPKLLIYYTSRLESGVPSRFSGSGSGTDYTLTISSLQPEDFATYYCQQGNTLPWTFGQGTKVEIKEPKSSDKTHTCPPCPAPELLGGPSVFLFPPKPKDTLMISRTPEVTCVVVDVSHEDPEVKFNWYVDGVEVHNAKTKPREEQYASTYRVVSVLTVLHQDWLNGKEYKCKVSNKALPAPIEKTISKAKGQPREPQVCTLPPSRDELTKNQVSLSCAVKGFYPSDIAVEWESNGQPENNYKTTPPVLDSDGSFFLVSKLTVDKSRWQQGNVFSCSVMHEALHNHYTQKSLSLSPGA
For B3, the “specific lysis of 786-O cells by expanded primary T cells (E:T 10:1, 16 h), EC50” value (“specific lysis of 786-O cells” below) in assay [8] is 0.19 µg/mL and 1.9 nM. In [9], the binding result was “no binding”.

B4: hX3.12.6×v9 ROR2×CD3 bispecific antibody (heterodimeric aglycosylated scFv-Fc) (bispecific antibody)
chain 1: DPMLTQSPSSLSASVGDRVTITCQASQSISSDLSWYQQKPGKAPKLLIYQASTLASGVPSRFKGSGYGTEYTLTISSLQPEDFATYYCLGGYADASYRTAFGGGTKLEIKGGGGSGGGGSGGGGSEVQLVESGGGLVQPGGSLRLSCAASGFTFSSYGVTWVRQAPGKGLEWVSYINTAGNTYYASWAKSRFTISRDNAKNSLYLQMNSLRAEDTAVYYCARDDRWSLNIWGQGTLVTVSSEPKSSDKTHTCPPCPAPELLGGPSVFLFPPKPKDTLMISRTPEVTCVVVDVSHEDPEVKFNWYVDGVEVHNAKTKPREEQYASTYRVVSVLTVLHQDWLNGKEYKCKVSNKALPAPIEKTISKAKGQPREPQVYTLPPCRDELTKNQVSLWCLVKGFYPSDIAVEWESNGQPENNYKTTPPVLDSDGSFFLYSKLTVDKSRWQQGNVFSCSVMHEALHNHYTQKSLSLSPGA
chain 2: EVQLVESGGGLVQPGGSLRLSCAASGYSFTGYTMNWVRQAPGKGLEWVALINPYKGVSTYNQKFKDRFTISVDKSKNTAYLQMNSLRAEDTAVYYCARSGYYGDSDWYFDVWGQGTLVTVSSGGGGSGGGGSGGGGSDIQMTQSPSSLSASVGDRVTITCRASQDIRNYLNWYQQKPGKAPKLLIYYTSRLESGVPSRFSGSGSGTDYTLTISSLQPEDFATYYCQQGNTLPWTFGQGTKVEIKEPKSSDKTHTCPPCPAPELLGGPSVFLFPPKPKDTLMISRTPEVTCVVVDVSHEDPEVKFNWYVDGVEVHNAKTKPREEQYASTYRVVSVLTVLHQDWLNGKEYKCKVSNKALPAPIEKTISKAKGQPREPQVCTLPPSRDELTKNQVSLSCAVKGFYPSDIAVEWESNGQPENNYKTTPPVLDSDGSFFLVSKLTVDKSRWQQGNVFSCSVMHEALHNHYTQKSLSLSPGA
notes: ROR2 scFv on the knob Fc, v9 anti-CD3 scFv on the hole Fc, both N297A; also called hX3.12.6×V9 bi-mAb
As to B4, the “specific lysis of 786-O cells” value in assay [8] was 0.21 µg/mL and 2.1 nM. The binding result in [9] is listed as “no binding”.

B5: hX3.12.5×v9 ROR2×CD3 bispecific antibody (heterodimeric aglycosylated scFv-Fc) (bispecific antibody)
chain 1: DPMLTQSPSSLSASVGDRVTITCQASQSISSDLSWYQQKPGKAPKLLIYQASTLASGVPSRFKGSGYGTEYTLTISSLQPEDFATYYCLGGYADASYRTAFGGGTKLEIKGGGGSGGGGSGGGGSEVQLVESGGGLIQPGGSLRLSCAASGFTVSSYGVTWVRQAPGKGLEWVSYINTAGNTYYASWAKSRFTISRDNSKNTLYLQMNSLRAEDTAVYYCARDDRWSLNIWGQGTLVTVSSEPKSSDKTHTCPPCPAPELLGGPSVFLFPPKPKDTLMISRTPEVTCVVVDVSHEDPEVKFNWYVDGVEVHNAKTKPREEQYASTYRVVSVLTVLHQDWLNGKEYKCKVSNKALPAPIEKTISKAKGQPREPQVYTLPPCRDELTKNQVSLWCLVKGFYPSDIAVEWESNGQPENNYKTTPPVLDSDGSFFLYSKLTVDKSRWQQGNVFSCSVMHEALHNHYTQKSLSLSPGA
chain 2: EVQLVESGGGLVQPGGSLRLSCAASGYSFTGYTMNWVRQAPGKGLEWVALINPYKGVSTYNQKFKDRFTISVDKSKNTAYLQMNSLRAEDTAVYYCARSGYYGDSDWYFDVWGQGTLVTVSSGGGGSGGGGSGGGGSDIQMTQSPSSLSASVGDRVTITCRASQDIRNYLNWYQQKPGKAPKLLIYYTSRLESGVPSRFSGSGSGTDYTLTISSLQPEDFATYYCQQGNTLPWTFGQGTKVEIKEPKSSDKTHTCPPCPAPELLGGPSVFLFPPKPKDTLMISRTPEVTCVVVDVSHEDPEVKFNWYVDGVEVHNAKTKPREEQYASTYRVVSVLTVLHQDWLNGKEYKCKVSNKALPAPIEKTISKAKGQPREPQVCTLPPSRDELTKNQVSLSCAVKGFYPSDIAVEWESNGQPENNYKTTPPVLDSDGSFFLVSKLTVDKSRWQQGNVFSCSVMHEALHNHYTQKSLSLSPGA
notes: ROR2 scFv on the knob Fc, v9 anti-CD3 scFv on the hole Fc, both N297A; also called hX3.12.5×V9 bi-mAb; hX3.12.5×CD3 bi-mAb
Consider B5, for which the “specific lysis of 786-O cells” value in assay [8] is 0.15 µg/mL and 1.5 nM. In addition, the binding result in assay [9] is reported as “no binding”.

(Values after patent publication US20230143003A1 (JULIUS MAXIMILIANS UNIVERSIT T W RZBURG, published 2023).)
